{"source": "patent US20180094051A1", "about": "“METHOD FOR INHIBITING LYMPHANGIOGENESIS BY ADMINISTRATION OF AN INHIBITOR OF THE CXCL12 PATHWAY” (Tsinghua University, priority 2012, published 2018)", "molecules": {"B1": {"name": "VEGF-C: Vascular Endothelial Growth Factor C, the major pro-lymphangiogenesis factor; purchased from R&D Systems (protein, UniProt P49767 112-227, looked up)", "Vascular endothelial growth …": "AHYNTEILKSIDNEWRKTQCMPREVCIDVGKEFGVATNTFFKPPCVSVYRCGGCCNSEGLQCMNTSTSYLSKTLFEITVPLSQGPKPVTISFANHTSCRCMSKLDVYRQVHSIIRR"}}, "assay_type_in_all_cases": "cell-based", "key": {"chemokine receptor CXCR4 [1]": {"system": "chemokine receptor CXCR4", "assay": "qRT-PCR of chemokine receptor mRNA in VEGF-C-stimulated lymphatic endothelial cells", "settings": "VEGF-C-stimulated mouse lymphatic endothelial cells vs untreated cells", "description": "The isolation and extraction of total RNA from cells was performed using TRIZOL reagent (purchased from Invitrogen) following the standard operations as described in the reagent instructions. 1 mL of TRIZOL was added to the primary lymphatic endothelial cells (about 1×10^6) collected by centrifugation, repeatedly pipetted up and down for 30 times, and then set aside at room temperature for 5 minutes. After centrifugation at 10,000×g at 4° C. for 15 minutes, the supernatant was […] gently. 0.2 mL of chloroform was added to the supernatant, vortexed vigorously for about 15 seconds, and then set aside at room temperature for 3 minutes. […]\nThe synthesis of first strand cDNA was performed using a Fermentas kit (RevertAid™ First Strand cDNA Synthesis Kits) according to the standard instructions. […] The reverse transcription product was used in subsequent PCR and fluorescence quantitative RT-PCR, and the rest of the product was stored in a refrigerator at −80° C.\nFluorescence Quantitative Real-Time PCR was performed using a kit from Stratagene (Brilliant II SYBR® Green QRT-PCR Master Mix). The fluorescence quantitative PCR instrument was MX3000P (purchased from Stratagene), the fluorescence dye was SYBR Green, the volume of the reaction system was 20 μL, and the cycle number of the reaction was 40. […]"}, "chemokine receptor CXCR4 [2]": {"system": "chemokine receptor CXCR4", "assay": "Flow cytometry of CXCR4 on the surface of lymphatic endothelial cells", "settings": "starved mouse lymphatic endothelial cells, 100 ng/mL VEGF-C, 24 hours", "description": "Mouse primary lymphatic endothelial cells at passage 2 or 3 in good condition were selected and seeded into four 6 cm Petri dishes. Two groups of cells were cultured normally, while the other two groups of cells were treated by replacing the medium with a medium free of serum and growth factors when the cell density reached 80%, and starved overnight. One of the two groups was cultured for 24 hours after the medium was replaced with a serum-free culture medium containing 100 ng/mL of VEGF-C. The four groups of cells were detected for the expression level of chemokine receptor CXCR4 on the cell surface by flow cytometry. The group of cells cultured normally was used as negative control.\nThe cells were treated with 0.25% disodium EDTA (Ethylenediaminetetraacetic Acid Disodium Salt, EDTA), then washed with ice-cold PBS. The cells were suspended and centrifuged at a low speed (600 g, 3 minutes; the low-speed centrifugations in this experiment all referred to centrifugation at this speed for this time). The cells were resuspended in 1 mL of PBS containing 10% goat serum and then incubated for 15 minutes. […]\nEach group of cells were resuspended in 1 mL of PBS containing 2% goat serum, and then 1 μg of fluorescein-labeled secondary antibody was added. […] The expression of CXCR4 on cell surface was analyzed by flow cytometry (FACS Calibur Flow Cytometry System, Becton Dickinson)."}, "HIF-1α": {"system": "HIF-1α", "assay": "Immunoblotting of HIF-1α in lymphatic endothelial cells", "settings": "mouse lymphatic endothelial cells, 100 ng/mL VEGF-C"}}, "note": "“Also recorded” adds a separate entry of the source.", "data": [{"molecule": "B1", "values": [{"measurement": "chemokine receptor CXCR4 mRNA level", "setting": "chemokine receptor CXCR4 [1]", "value": "significantly upregulated by about three times; also recorded: specifically up-regulated the expression of chemokine receptor CXCR4"}, {"measurement": "cell surface CXCR4 protein level", "setting": "chemokine receptor CXCR4 [2]", "value": "could indeed upregulate the expression level of chemokine receptor CXCR4"}, {"measurement": "expression level of HIF-1α", "setting": "HIF-1α", "value": "could indeed upregulate the expression level of HIF-1α; also recorded: could up-regulate the expression of CXCR4 and HIF-1α"}]}]}
